Assay results reported in PMC3278277.

Key:
Settings in all cases: glycan gained; control: wild type
[1] = Anti-V5 blot of Ni-NTA purified C-terminal fragment, COS-1
[2] = GALC blot and activity in H4 conditioned medium
[3] = HNG colorimetric assay, stable H4 lysates
[4] = Uptake index: recipient lysate activity / input medium activity

B1: galactocerebrosidase (GALC): D528N (protein)
parent chain: MLGKSHGRATHGPLPLADLGIHLPCVKVLHQVTPEEKPAATSRLLVNYPEPYRSQILDYLFKPNFGASLHILKVEIGGDGQTTDGTEPSHMHYALDENYFRGYEWWLMKEAKKRNPNITLIGLPWSFPGWLGKGFDWPYVNLQLTAYYVVTWIVGAKRYHDLDIDYIGIWNERSYNANYIKILRKMLNYQGLQRVKIIASDNLWESISASMLLDAELFKVVDVIGAHYPGTHSAKDAKLTGKKLWSSEDFSTLNSDMGAGCWGRILNQNYINGYMTSTIAWNLVASYYEQLPYGRCGLMTAQEPWSGHYVVESPVWVSAHTTQFTQPGWYYLKTVGHLEKGGSYVALTDGLGNLTIIIETMSHKHSKCIRPFLPYFNVSQQFATFVLKGSFSEIPELQVWYTKLGKTSERFLFKQLDSLWLLDSDGSFTLSLHEDELFTLTTLTTGRKGSYPLPPKSQPFPSTYKDDFNVDYPFFSEAPNFADQTGVFEYFTNIEDPGEHHFTLRQVLNQRPITWAADASNTISIIGDYNWTNLTIKCDVYIETPDTGGVFIAGRVNKGGILIRSARGIFFWIFANGSYRVTGDLAGWIIYALGRVEVTAKKWYTLTLTIKGHFTSGMLNDKSLWTDIPVNFPKNGWAAIGTHSFEFAQFDNFLVEATR
- other: proteolytic processing [1]: no change
- expression_or_secretion [2]: decreases
- enzymatic_activity, percent_of_wt [3]: decreases
- other: cellular uptake, other: uptake index [4]: decreases
